For this data set, the target named is Hsp90alpha (UniProt P07900 P07900:2-732). In words: filter; nitrocellulose double-filter binding, printed as binding constant. The settings on record: label: 5' biotin-TEG, radiolabel. The procedure: The protein-bound ASOs were transferred to a nitrocellulose membrane and the signal intensity was determined. As a control, no significant binding was found for a PS/DNA ASO. The specific binding of protein-bound ASO to the nitrocellulose membrane was confirmed using a double-filter binding assay for PS/cEt and PS/LNA ASOs. The unbound ASOs were attracted using a Hybond-N+Nylon membrane under the Hybond ECL nitrocellulose membrane.

The term Kd denotes the equilibrium constant for the complex coming apart. High values mean weaker binding, low ones tighter binding.

The molecule CTGCTAGCCTCTGGATTTGA (XNA, 5-10-5 gapmer, LNA wings 1-5 and 16-20, 2'-deoxy gap, all C 5mC, full PS) [Isis 586184 (PS/LNA)] came in with a dissociation constant Kd of 17.7 nM.

The record behind these values is patent US20180148718, “COMPOUNDS AND METHODS FOR INCREASING ANTISENSE ACTIVITY” (Ionis Pharmaceuticals, Inc., published 2018).
